Where a chain is given by its changes, count along the chain named.
B1: GpH7-A5/GpH7-B3 variant K334_19Q/GpL16-k0 (antibody, human IgG1, kappa)
heavy 1: not shown
heavy 2: not shown
light: DIVMTQSPLSLPVTPGEPASISCQASESLVHSNRNTYLHWYLQKPGQSPQLLIYKVSNRFSGVPDRFSGSGSGTDFTLKISRVEAEDVGVYYCSQNTHVPPTFGQGTKVEIERTVAAPSVFIFPPSDEQLKSGTASVVCLLNNFYPREAKVQWKVDNALQSGNSQESVTEQDSKDSTYSLSSTLTLSKADYEKHKVYACEVTHQGLSSPVTKSFNRGEC
notes: heterodimerized IgG1 (He Ab), mutation in one H chain only; also called He Ab
B2: GpH7-A5/GpH7-B3 variant P331_11K/GpL16-k0 (antibody, human IgG1, kappa)
heavy 1: not shown
heavy 2: not shown
light: B1 light
notes: as for B1
B3: GpH7-A5/GpH7-B3 variant P331_09D/GpL16-k0 (antibody, human IgG1, kappa)
heavy 1: not shown
heavy 2: not shown
light: B1 light
notes: as for B1
B4: GpH7-A5/GpH7-B3 variant P331_04F/GpL16-k0 (antibody, human IgG1, kappa)
heavy 1: not shown
heavy 2: not shown
light: B1 light
notes: as for B1
B5: GpH7-A5/GpH7-B3 variant S337_01G/GpL16-k0 (antibody, human IgG1, kappa)
heavy 1: not shown
heavy 2: not shown
light: B1 light
notes: as for B1
B6: GpH7-A5/GpH7-B3 variant P331_16H/GpL16-k0 (antibody, human IgG1, kappa)
heavy 1: not shown
heavy 2: not shown
light: B1 light
notes: as for B1
B7: GpH7-A5/GpH7-B3 variant P331_03V/GpL16-k0 (antibody, human IgG1, kappa)
heavy 1: not shown
heavy 2: not shown
light: B1 light
notes: as for B1
B8: GpH7-A5/GpH7-B3 variant P331_12R/GpL16-k0 (antibody, human IgG1, kappa)
heavy 1: not shown
heavy 2: not shown
light: B1 light
notes: as for B1
B9: GpH7-A5/GpH7-B3 variant P331_20W/GpL16-k0 (antibody, human IgG1, kappa)
heavy 1: not shown
heavy 2: not shown
light: B1 light
notes: as for B1
B10: GpH7-A5/GpH7-B3 variant P331_10E/GpL16-k0 (antibody, human IgG1, kappa)
heavy 1: not shown
heavy 2: not shown
light: B1 light
notes: as for B1
B11: GpH7-A5/GpH7-B3 variant P331_18N/GpL16-k0 (antibody, human IgG1, kappa)
heavy 1: not shown
heavy 2: not shown
light: B1 light
notes: as for B1
B12: GpH7-A5/GpH7-B3 variant P331_07I/GpL16-k0 (antibody, human IgG1, kappa)
heavy 1: not shown
heavy 2: not shown
light: B1 light
notes: as for B1
B13: GpH7-A5/GpH7-B3 variant S337_03V/GpL16-k0 (antibody, human IgG1, kappa)
heavy 1: not shown
heavy 2: not shown
light: B1 light
notes: as for B1
B14: GpH7-A5/GpH7-B3 variant P331_02A/GpL16-k0 (antibody, human IgG1, kappa)
heavy 1: not shown
heavy 2: not shown
light: B1 light
notes: as for B1
B15: GpH7-A5/GpH7-B3 variant P331_14T/GpL16-k0 (antibody, human IgG1, kappa)
heavy 1: not shown
heavy 2: not shown
light: B1 light
notes: as for B1
B16: GpH7-A5/GpH7-B3 variant P331_19Q/GpL16-k0 (antibody, human IgG1, kappa)
heavy 1: not shown
heavy 2: not shown
light: B1 light
notes: as for B1
B17: GpH7-A5/GpH7-B3 variant S337_02A/GpL16-k0 (antibody, human IgG1, kappa)
heavy 1: not shown
heavy 2: not shown
light: B1 light
notes: as for B1
B18: GpH7-A5/GpH7-B3 variant S337_06M/GpL16-k0 (antibody, human IgG1, kappa)
heavy 1: not shown
heavy 2: not shown
light: B1 light
notes: as for B1
B19: GpH7-A5/GpH7-B3 variant P331_13S/GpL16-k0 (antibody, human IgG1, kappa)
heavy 1: not shown
heavy 2: not shown
light: B1 light
notes: as for B1
B20: GpH7-A5/GpH7-B3 variant P331_15Y/GpL16-k0 (antibody, human IgG1, kappa)
heavy 1: not shown
heavy 2: not shown
light: B1 light
notes: as for B1
B21: GpH7-A5/GpH7-B3 variant S337_04F/GpL16-k0 (antibody, human IgG1, kappa)
heavy 1: not shown
heavy 2: not shown
light: B1 light
notes: as for B1
B22: GpH7-A5/GpH7-B3 variant P331_08L/GpL16-k0 (antibody, human IgG1, kappa)
heavy 1: not shown
heavy 2: not shown
light: B1 light
notes: as for B1
B23: GpH7-A5/GpH7-B3 variant P331_06M/GpL16-k0 (antibody, human IgG1, kappa)
heavy 1: not shown
heavy 2: not shown
light: B1 light
notes: as for B1
B24: GpH7-A5/GpH7-B3 variant K334_20W/GpL16-k0 (antibody, human IgG1, kappa)
heavy 1: not shown
heavy 2: not shown
light: B1 light
notes: as for B1

Columns and labels:
Test in all cases: SPR; % of GpH7-A5/GpH7-B3/GpL16-k0
[1] = biological target: T1, FcγRIa extracellular domain with C-terminal His tag (human, UniProt P12314 16-292)
T1 construct: extracellular domain; also called 1a; CD64
T1 sequence (P12314 other isoform, or with tags, fused parts or gaps): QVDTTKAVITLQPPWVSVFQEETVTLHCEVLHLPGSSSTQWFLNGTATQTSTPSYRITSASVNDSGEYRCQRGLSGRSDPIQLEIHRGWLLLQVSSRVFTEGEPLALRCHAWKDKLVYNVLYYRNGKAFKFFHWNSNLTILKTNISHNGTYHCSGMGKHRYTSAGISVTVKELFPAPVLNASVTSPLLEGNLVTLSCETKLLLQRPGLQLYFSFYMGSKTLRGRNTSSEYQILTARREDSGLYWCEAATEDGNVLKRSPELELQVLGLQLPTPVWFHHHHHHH

[2] = biological target: T2, FcγRIIa(R) extracellular domain with C-terminal His tag (human, UniProt P12318 34-217)
T2 construct: extracellular domain; R131 allotype; also called 2aR; CD32
T2 sequence: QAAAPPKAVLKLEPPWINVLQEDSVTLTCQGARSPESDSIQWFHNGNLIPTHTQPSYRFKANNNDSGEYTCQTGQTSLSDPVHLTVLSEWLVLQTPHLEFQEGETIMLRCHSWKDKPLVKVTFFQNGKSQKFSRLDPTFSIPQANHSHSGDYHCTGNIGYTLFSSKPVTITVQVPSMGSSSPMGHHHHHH

[3] = biological target: T3, FcγRIIIa extracellular domain with C-terminal His tag (human, UniProt P08637 17-208)
T3 construct: extracellular domain; also called 3a; CD16
T3 sequence (P08637 other isoform, or with tags, fused parts or gaps): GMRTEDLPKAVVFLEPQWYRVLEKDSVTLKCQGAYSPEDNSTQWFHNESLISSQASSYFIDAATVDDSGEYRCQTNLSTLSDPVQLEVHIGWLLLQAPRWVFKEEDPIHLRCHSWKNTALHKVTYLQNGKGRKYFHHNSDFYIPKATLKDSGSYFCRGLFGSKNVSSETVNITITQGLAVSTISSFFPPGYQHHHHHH

[4] = biological target: T4, FcγRIIa(H) extracellular domain with C-terminal His tag (human, UniProt P12318 34-217)
T4 construct: extracellular domain; H131 allotype; also called 2aH; CD32
T4 sequence: T2 sequence with R134H

[5] = biological target: T5, FcγRIIb extracellular domain with C-terminal His tag (human, UniProt P31994 43-217)
T5 construct: extracellular domain; also called 2b; CD32
T5 sequence: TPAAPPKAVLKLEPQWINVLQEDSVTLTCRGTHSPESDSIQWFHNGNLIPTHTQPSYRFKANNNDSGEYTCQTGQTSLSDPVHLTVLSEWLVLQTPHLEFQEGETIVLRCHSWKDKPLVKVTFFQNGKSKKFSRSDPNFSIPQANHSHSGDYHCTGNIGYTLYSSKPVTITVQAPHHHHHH

Row | Binder | He/Con 1a [1] | He/Con 2aR [2] | He/Con 3a [3] | He/Con 2aH [4] | He/Con 2b [5]
1 | B1 | 100% | 149% | 140% | 116% | 141%
2 | B2 | 100% | 94.6% | 61.8% | 83.7% | 93.9%
3 | B3 | 109% | 101% | 71.6% | 93.6% | 104%
4 | B4 | 108% | 110% | 70.7% | 87.7% | 122%
5 | B5 | 103% | 101% | 95.2% | 98.7% | 100%
6 | B6 | 105% | 113% | 73.4% | 87.5% | 128%
7 | B7 | 104% | 114% | 66.9% | 85.4% | 132%
8 | B8 | 100% | 88.7% | 64.8% | 84.3% | 85%
9 | B9 | 107% | 109% | 71.9% | 85.8% | 123%
10 | B10 | 108% | 112% | 68.7% | 90.1% | 128%
11 | B11 | 106% | 104% | 67.1% | 87.2% | 110%
12 | B12 | 106% | 109% | 60.4% | 80.1% | 127%
13 | B13 | 103% | 108% | 87.1% | 104% | 108%
14 | B14 | 105% | 105% | 82.5% | 93.9% | 110%
15 | B15 | 102% | 104% | 67.8% | 86.5% | 111%
16 | B16 | 108% | 96.1% | 73.9% | 91.6% | 94%
17 | B17 | 102% | 107% | 92.4% | 103% | 106%
18 | B18 | 104% | 107% | 89.7% | 104% | 106%
19 | B19 | 108% | 104% | 80.9% | 94% | 107%
20 | B20 | 109% | 112% | 74.9% | 89% | 127%
21 | B21 | 103% | 106% | 94.4% | 105% | 107%
22 | B22 | 105% | 101% | 66% | 85.9% | 106%
23 | B23 | 106% | 105% | 68.4% | 88.1% | 113%
24 | B24 | 99.9% | 143% | 132% | 112% | 134%
